According to patent publication US20230355708A1:

How the values were obtained:
S1 (SARS-CoV-2) = S1 (SARS-CoV-2) (UniProt P0DTC2); assay: SPR
Yu gp120 = assay: SPR

ACE2
Kd (S1 (SARS-CoV-2)): 2.4 nM

P51G-CVN-HIS(OK)
Kd (Yu gp120): 22.8 nM
